From patent US20240252474A1, “METHODS AND COMPOSITIONS COMPRISING A CARDIO-TOLERATED HDAC INHIBITOR” (HUYABIO International, LLC, priority 2023, published 2024)

Test: Phase 1b safety and tolerability of HBI-8000 combined with nivolumab (DLTs, TEAEs)
Type: in vivo
Description: The present example, was a Phase Ib/2 open-label dose finding study for HBI-8000 (also referred to in the art as “chidamide” or “tucidinostat” and also referred to herein as a compound of formula I) in combination with nivolumab in patients with advanced solid tumors, including melanoma, RCC (renal cell carcinoma), and NSCLC (non-small cell lung cancer). This study was conducted in accordance with Good Clinical Practice guidelines and the Declaration of Helsinki and with assurance/approval from the US Department of Health and Human Services; the protocol was approved by the institutional review boards or ethics committees of all participating sites. All patients provided written informed consent to participate before enrollment. […]
HBI-8000 at three dose levels (20 mg, 30 mg, and 40 mg) given orally twice a week (BIW) were evaluated. Doses were taken approximate 30 minutes after a meal. The starting dose (20 mg) was selected based on pharmacokinetic profiles established for monotherapy in Japanese patients with T-cell lymphoma.
The decision to escalate the dose was based on the conventional 3+3 design and observed incidences of dose-limiting toxicities (DLTs). Each treatment cycle was defined as 28 days. […] Subjects experiencing DLT within the first two weeks after having received 100% of assigned dose of HBI-8000 are also evaluable for DLT. Unacceptable toxicities were defined as grade 3 or higher non-hematologic and hematologic toxicities with clinical complications. Unacceptable toxicities observed over the first 28 days following HBI-8000 administration were considered as DLTs. […] HBI-8000 administration continued until disease progression or unacceptable toxicity was observed. The efficacy of the combination was further evaluated in an expanded cohort of selected patient populations at RP2D based on an objective response rate according to Response Evaluation Criteria in Solid Tumors (RECIST) version 1.1 criteria, progression-free survival, and duration of responses.
Safety evaluations included physical examinations, vital signs, ECGs, ECOG performance status, and laboratory tests.
Statistical analyses of safety, tolerability, and anti-tumor activity were primarily descriptive in nature. Toxicities were tabulated by type and grade. The safety population included all patients who received ≥1 dose of HBI-8000 and nivolumab. Continuous variables were summarized using descriptive statistics and categorical variables were summarized with number and percentage at each category. Pharmacokinetic parameters were derived using noncompartmental methods with Phoenix® WinNonlin® Version 6.4 (Certara, L. P., Princeton, NJ, USA).

[1] = 20 mg HBI-8000 BIW + nivolumab, N = 3
[2] = 30 mg HBI-8000 BIW + nivolumab, N = 7
[3] = 40 mg HBI-8000 BIW + nivolumab, N = 7

Nivolumab: fully human monoclonal antibody directed against PD-1 (marketed as OPDIVO) [reference compound]
Diarrhoea, Related Nivo, Any G [1]: 1 (33) n (%) | SAE related to Nivolumab alone, number of subjects [1]: 1 n | TEAE related to Nivolumab alone, number of subjects [1]: 2 n | TEAE resulting in discontinuation of Nivo alone, number of subjects [1]: 1 n | Weight decreased, Related Nivo, Any G [1]: 1 (33) n (%) | Back pain, Related Nivo, Any G [2]: 2 (29) n (%) | Dyspnoea, Related Nivo, Any G [2]: 1 (14) n (%) | Fall, Related Nivo, Any G [2]: 1 (14) n (%) | Hypoxia, Related Nivo, Any G [2]: 1 (14) n (%) | Lipase increased, Related Nivo, Any G [2]: 1 (14) n (%) | SAE related to Nivolumab alone, number of subjects [2]: 2 n | TEAE related to Nivolumab alone, number of subjects [2]: 6 n | TEAE resulting in discontinuation of Nivo alone, number of subjects [2]: 4 n | Diarrhoea, Related Nivo, Any G [3]: 1 (14) n (%) | SAE related to Nivolumab alone, number of subjects [3]: 1 n | TEAE related to Nivolumab alone, number of subjects [3]: 2 n | TEAE resulting in discontinuation of Nivo alone, number of subjects [3]: 2 n | SAE related to Nivolumab alone, number of subjects (Total, all dose levels, N = 17): 4 n | TEAE related to Nivolumab alone, number of subjects (Total, all dose levels, N = 17): 10 n | TEAE resulting in discontinuation of Nivo alone, number of subjects (Total, all dose levels, N = 17): 7 n
